Experimental findings from patent publication CN105461808A (CHANGCHUN GENESCIENCE PHARMACEUTICALS CO LTD, dated 2016) are described below.

The target of one experiment is T1, PDL1-hFc (human, UniProt Q9NZQ7 19-238, limits assumed).
T1 construct: Coating antigen of the ELISA on human PD-L1 and of the T cell proliferation assay; also called humanPDL-1; 人PDL-1; not shown: human Fc (hFc)
The experiment in a line: ELISA, PDL1-hFc coated 1 ug/ml, antibody titrated, HRP secondary. Background: An ELISA detects its analyte on a solid surface through an enzyme-linked reagent.

A further experiment concerns the target T2, MonkeyPDL1-his (monkey).
T2 construct: Coating antigen of the ELISA on monkey PD-L1; also called 猴PDL-1
Briefly: ELISA, MonkeyPDL1-his coated 1 ug/ml, antibody titrated, HRP secondary.

T1 sequence (Q9NZQ7 19-238 limits assumed): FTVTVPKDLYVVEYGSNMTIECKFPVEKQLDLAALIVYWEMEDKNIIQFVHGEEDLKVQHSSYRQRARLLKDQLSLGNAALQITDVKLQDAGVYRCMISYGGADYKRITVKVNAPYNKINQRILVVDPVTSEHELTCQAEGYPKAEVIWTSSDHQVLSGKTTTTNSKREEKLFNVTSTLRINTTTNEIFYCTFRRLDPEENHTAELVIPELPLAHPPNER

B1: H017-6F11.3.2 (antibody, mouse IgG2b, V domains shown)
VH: EVQLQQSGAELVKPGASVKLSCTASGFNIKDTYIHWMRQRPEQGLEWIGRIDPANDNTKYDPKFQGKATVTADTSSNTAYLQLSSLTSEDTAVYYCARGLRLRYFDVWGAGTTVTVSS
VL: DIQMTQTPSSLSASLGGKVTITCKASQDIHKYIAWYQHKPGKGPRLLIHYTSTLQPGIPSRFSGSGSGRDFSFSISNLEPEDFETYYCLQYENLLPTFGGGTKLEIK
notes: Mouse hybridoma antibody purified from supernatant
By EC50 is commonly meant the midpoint of the concentration-response curve. The low end stands for greater potency, the high end for weaker potency. As to B1, the EC50 with PDL1-hFc amounted to 0.049 nM; with MonkeyPDL1-his, 0.123 nM.

B2: H018-17B5.5.1 (antibody, mouse IgG1, V domains shown)
VH: QVQLQQSGAELMKPGASVKISCKATGYKFSSYWIEWVKQRPGHGLEWIGEILPGSGNPNYDEKFKGKATFTADTSSNTAYMQLSSLTSEDSAVYYCARERWMDSWGQGTSVTVSS
VL: DIQMTQTASSLSASLGDRVTISCSASQGIFNYLNWYQQKPDGTVTVLIYYTSRLHSGVPSRFSGSGSGTDYSLTISNLEPEDIATYYCQQYSKLPYTFGGGTKLEIKR
notes: as for B1
Take B2: the EC50 was 0.133 nM with PDL1-hFc and 0.7 nM with MonkeyPDL1-his.

B3: H017-9C10.2.8 (antibody, mouse IgG1, V domains shown)
VH: QVQLKQSGFGLVLPSQSLSITCTVSGFSLTSYGVHWVRQSPGKGLEWLGLIWSGGGTDYNAAFISRLSISKDNSKSQVFFKINSLQANDTAIYYCARQLGLRAMDYWGQGTSVTVSS
VL: DILLTQSPAILSVSPGERVSFSCRASQSIGTTIHWYQQRTNGSPRLLIKYASESVSGIPSRFSGSGSGTDFTLSINSVESEDIADYYCQQSNSWPLTFGAGTKLEIK
notes: as for B1
Turning to B3, the EC50 is 0.079 nM with PDL1-hFc and 0.191 nM with MonkeyPDL1-his.
